Test results reported in patent publication US20230357838.

Key:
RhDa01 = test system: T1, RhDa01; conditions: CG 0.23, CH 0.00
T1 sequence: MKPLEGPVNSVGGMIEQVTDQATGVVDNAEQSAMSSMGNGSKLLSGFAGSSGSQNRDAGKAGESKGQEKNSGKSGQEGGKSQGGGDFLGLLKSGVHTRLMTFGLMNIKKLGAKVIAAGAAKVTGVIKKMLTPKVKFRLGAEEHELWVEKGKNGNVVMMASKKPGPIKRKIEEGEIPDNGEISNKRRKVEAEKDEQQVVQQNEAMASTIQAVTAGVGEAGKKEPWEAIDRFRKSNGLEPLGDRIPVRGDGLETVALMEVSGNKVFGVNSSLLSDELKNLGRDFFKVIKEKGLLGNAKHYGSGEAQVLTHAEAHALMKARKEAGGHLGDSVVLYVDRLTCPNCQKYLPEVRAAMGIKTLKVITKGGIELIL

RhDa01_extN10 = test system: T2, RhDa01_extN10; conditions: CG 0.32, CH 0.00
T2 sequence: T1 sequence

[1] = test system: d22_PeDa01 (Pseudomonas entomophila)
Sso7d_GGGVTS_AcDa01 = test system: T3, Sso7d_GGGVTS_AcDa01; conditions: CG 0.79, CH 0.03
T3 sequence: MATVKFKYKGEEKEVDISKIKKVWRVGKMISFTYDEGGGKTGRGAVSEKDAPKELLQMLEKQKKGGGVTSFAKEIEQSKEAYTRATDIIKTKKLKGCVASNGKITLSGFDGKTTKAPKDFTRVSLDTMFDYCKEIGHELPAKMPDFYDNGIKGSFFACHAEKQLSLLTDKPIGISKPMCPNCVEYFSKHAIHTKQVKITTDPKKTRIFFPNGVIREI

Sso7d_VTAGVGEAG_MGYPDa20 = test system: T4, Sso7d_VTAGVGEAG_MGYPDa20
T4 sequence: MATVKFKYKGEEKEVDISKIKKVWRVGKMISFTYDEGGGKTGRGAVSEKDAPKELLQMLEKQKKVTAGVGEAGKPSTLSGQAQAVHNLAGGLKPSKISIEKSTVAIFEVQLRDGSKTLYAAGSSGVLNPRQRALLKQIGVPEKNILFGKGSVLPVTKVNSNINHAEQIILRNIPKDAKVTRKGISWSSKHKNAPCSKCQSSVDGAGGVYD

[2] = test system: T5, Sso7d_LSGLSDDKLKEI_AcDa01; conditions: CG 0.99, CH 0.17
T5 sequence: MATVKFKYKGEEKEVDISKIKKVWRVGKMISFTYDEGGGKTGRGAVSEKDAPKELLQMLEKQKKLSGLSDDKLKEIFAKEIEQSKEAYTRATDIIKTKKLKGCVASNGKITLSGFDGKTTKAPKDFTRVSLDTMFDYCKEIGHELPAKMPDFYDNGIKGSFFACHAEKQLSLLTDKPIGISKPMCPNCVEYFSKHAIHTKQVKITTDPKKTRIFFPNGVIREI

LbDa02 = test system: T6, LbDa02; conditions: NGS assay; Table 1 prints SEQ 19 for this name
T6 sequence: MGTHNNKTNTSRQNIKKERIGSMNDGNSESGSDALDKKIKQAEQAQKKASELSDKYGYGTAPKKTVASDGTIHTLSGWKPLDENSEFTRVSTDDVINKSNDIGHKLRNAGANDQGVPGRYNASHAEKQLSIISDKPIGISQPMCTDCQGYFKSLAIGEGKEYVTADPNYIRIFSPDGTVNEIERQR

HcDa01 = test system: T7, HcDa01
T7 sequence: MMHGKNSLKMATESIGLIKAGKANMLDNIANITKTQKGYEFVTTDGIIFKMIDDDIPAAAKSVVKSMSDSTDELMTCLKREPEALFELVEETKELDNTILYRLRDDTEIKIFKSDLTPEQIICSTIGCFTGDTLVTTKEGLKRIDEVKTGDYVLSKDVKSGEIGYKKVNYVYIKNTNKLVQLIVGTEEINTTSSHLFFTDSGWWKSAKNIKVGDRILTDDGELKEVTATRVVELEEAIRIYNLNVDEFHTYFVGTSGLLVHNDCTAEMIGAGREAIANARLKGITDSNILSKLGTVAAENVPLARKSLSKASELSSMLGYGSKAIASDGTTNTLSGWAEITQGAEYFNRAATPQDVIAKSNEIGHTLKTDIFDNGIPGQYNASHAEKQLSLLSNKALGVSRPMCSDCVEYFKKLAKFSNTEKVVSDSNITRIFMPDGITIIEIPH

Sso7d_RhDa01_extN10 = test system: T8, Sso7d_RhDa01_extN10
T8 sequence: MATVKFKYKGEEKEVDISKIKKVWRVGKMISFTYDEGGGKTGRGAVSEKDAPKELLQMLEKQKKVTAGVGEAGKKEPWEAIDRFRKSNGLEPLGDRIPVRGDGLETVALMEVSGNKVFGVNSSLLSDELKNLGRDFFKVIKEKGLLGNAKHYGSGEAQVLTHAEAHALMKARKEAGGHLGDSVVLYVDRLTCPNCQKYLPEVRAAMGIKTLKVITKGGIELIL

DddA = DddA (UniProt P0DUH5)
MGYPDa23 (unidentified) = test system: T9, MGYPDa23 (unidentified)
T9 sequence: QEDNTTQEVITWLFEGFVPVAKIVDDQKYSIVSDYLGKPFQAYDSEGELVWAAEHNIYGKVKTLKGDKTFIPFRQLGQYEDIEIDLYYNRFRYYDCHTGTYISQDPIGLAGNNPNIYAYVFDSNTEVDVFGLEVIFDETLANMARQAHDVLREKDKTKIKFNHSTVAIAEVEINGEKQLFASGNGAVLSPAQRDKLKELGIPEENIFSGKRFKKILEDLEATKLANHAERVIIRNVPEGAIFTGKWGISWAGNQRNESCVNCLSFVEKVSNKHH

CbDa01 (unidentified) = conditions: CG 0.760, CH 0.022
[3] = test system: T10, CrDa01 (Clostridium roseum)
T10 sequence: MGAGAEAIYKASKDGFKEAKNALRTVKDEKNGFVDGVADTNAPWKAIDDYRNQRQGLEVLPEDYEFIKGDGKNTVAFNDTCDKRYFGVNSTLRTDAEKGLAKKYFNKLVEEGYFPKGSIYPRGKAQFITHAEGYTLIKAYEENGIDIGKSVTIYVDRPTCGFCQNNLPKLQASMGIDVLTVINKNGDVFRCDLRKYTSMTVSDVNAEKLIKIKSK

Substance: unmodified dsDNA (E. coli C2566 genomic)
- activity (fraction deaminated) (RhDa01): 0.07
- activity (fraction deaminated) (RhDa01_extN10): 0.1
- activity (fraction deaminated) [1]: 0.79
- activity (fraction deaminated) (Sso7d_GGGVTS_AcDa01): 0.26
- activity (fraction deaminated) (SsDa01): 0
- activity (fraction deaminated) (Sso7d_VTAGVGEAG_MGYPDa20): 0.72
- activity (fraction deaminated) [2]: 0.41
- activity (fraction deaminated) (LbDa02): 1
- activity (fraction deaminated) (HcDa01): 0
- activity (fraction deaminated) (Sso7d_RhDa01_extN10): 0.93
- activity (fraction deaminated) (DddA): 0.27
- activity (fraction deaminated) (MGYPDa01 (unidentified)): 0.748
- activity (fraction deaminated) (MGYPDa23 (unidentified)): 0.935
- activity (fraction deaminated) (CbDa01 (unidentified)): 0.24
- activity (fraction deaminated) [3]: 0.811
